# Literature values, collected in US6063755A, “Intestinal trefoil proteins” (The General Hospital Corporation, priority 1995, dated 2000).
# B1: PSP: porcine pancreatic peptide, pancreatic spasmolytic peptide; thought to include two trefoils (protein)
# chain: EKPAACRCSRQDPKNRVNCGFPGITSDQCFTSGCCFDSQVPGVPWCFKPLPAQESEECVMEV
# Tests used:
# [1] = laboratory animal; parenteral as well as oral administration
# [2] = laboratory animal; parenteral as well as oral administration; remark: listed apart in the source
molecule,measurement,setting,value
B1,gastrointestinal motility,[1],inhibit
same,gastric acid secretion,[2],inhibit
